The results in this text go back to the DeepSol protein solubility set.

This series is described as follows: soluble on expression in E. coli; label from the status in PepcDB or PDB records.
As to “MLDLQISKKTVDPLKRPPHSVEAEQSIIGGLMLDNQVWDKVSNKLCETDFYRTEHRILFRAISALAKKDQPFDVVTLLDALKTRNELDDAGGEAYLFELANNTPSVANVTAYADIVREKSVQRQLIAVATEIADSAYNPAGREVPELLDMAETKVFAIGEQTASDGGPENIKSILVRAVEKIDALYHNGDAITGLATGLSDLDEMTSGLQPSDLIIVAGRPSMGKTTLVMNMAEHAAIKAGKPVLVFSMEMPADSLAMRMMSSLGRIDQHRIRTGKLDDNDWPRVTSAVHMLSEAPLFIDDTPALSPGEMRARARRLAKEHGSLGLIVVDYLQLMKVPGFNADNRTAEISEISRSLKSLAKELQVPVIALSQLNRSLEQRADKRPVMSDLRESGAIEQDADLICFIYRDEVYNEDSPDKGTAEIIVAKQRNGPIGKVRVAFLGKYTRFEDLAFNGYQGVE”, the “soluble on expression in E. coli” value is recorded as “not soluble”.
With “MLDMNPQETYTAPEEVNTPSRPIDENALLQRHQVMVKRVVNQLRVHATSHCSIEDMQQIGLIALVEAGRRYGDIDDTHFPAFAVCRVRGAILDELRRLDWRSRKTRQQAHELNDVTRDLTRSLGRMPTDSEIIKALGTDEQDYYNRQNAALAGEMQSLDQLMENSTDSHFGGQYDGMEHEHIRRSLDSALGRLSKRDQLLLTLFYQHELNLHEIALVLDLTPPRICQLHKQALKQLNQLMSS” the entry was “not soluble”.
With “MLDNRPIGVFDSGIGGLTIVKNLMSILPNEDIIYFGDIARIPYGTKSRATIQKFAAQTAKFLIDQEVKAIIIACNTISAIAKDIVQEIAKAIPVIDVITAGVSLVDNLNTVGVIATPATINSNAYALQIHKKNPNIEVYSNPCGLFVSMIEEGFVSGHIVELVAKEYLSYFHDKNIQALILGCTHYPIIKESIAKILDVKLIDPSLQASKMLYSLLFENKLLNTTKSNPEYRFYVTDIPLKFRSVGEMFLQTEMQHLEIVSLDSY”, the “soluble on expression in E. coli” value is given as “not soluble”.
With “MLDSVTHSTFLPNASFCDPLMPWTDLFSNEDYYPAFEHQTACDSYWTSVHPEYWTKRHVWEWLQFCCDQYKLDANCISFCHFNISGLQLCSMTQEEFIEAAGICGEYLYFILQNIRSQGYSFFNDAEETKTGIKDYADSSCLKTSGIKSQDCHSRTSLQSSHLWEFVRDLLLSPEENCGILEWEDREQGIFRVVKSEALAKMWGQRKKNDRMTYEKLSRALRYYYKTGILERVDRRLVYKFGKNAHGWQEEKL” the entry was “soluble”; with “MLDTDTITFVNCMHEYICEMDSYPKMNTEIINFESDALRDNYLGDEFRRQILVYTPDSMTDSYPLMIELAGTNWKPRLHNKFANIVEKLFSQGLKAVIANPNFSTKYNINQYINSPAVGNYEDFIITEIVPYLRERYRTGKTALFGKSSGGFGSYTLAVRHPEVINGFADHFGDSCFFYLYADDFAYTYNMLQKYKKSELIEHLLSKRPTDEEMRALNVFGSSAFYSPDLNDPSGFDLPFDENTGEIKENVWSRWKQLDPVKNVKQNLDALKKLDAVYLDVGDSDEYRLYIGSRSLHNKLLEGGIEHHYEEFHGGHFGNSERYLVSLPYLYDALRVKE”, “not soluble”.
With “MLDVKSQDISIPEAVVVLCTAPDEATAQDLAAKVLAEKLAACATLLPGATSLYYWEGKLEQEYEVQMILKTTVSHQQALIDCLKSHHPYQTPELLVLPVTHGDTDYLSWLNASLR” the entry was “not soluble”; with “MLEDLRLYQLISPSLPVGSFTYSQGLEWAIEKGWVTNVTELKHWLSNQLMDSLATLELPVLAKLTQLLQQEEWQQAQDWCDFIIANRETKELRLEERQRGLAFSMLLPKLGIELNQTTLPMVKQTQVAAFALAANHWNLTPTKLAAAYAWGWLENAVIVGIKLVPLGQSAGQQLLLEMADVIPQAVEKSQHWPEHLIGSFTPAQVLASSRHESQYTRLFRSLEHHHHHH”, “soluble”.
Consider “MLEILGKASSINVRKVLWTCAELDLPYRREDWGSGFRDTHAAEFLALNPNAMVPVLRDGELVLWESNSIIRYLANRYAGERLYPQQAAPRARVDQWLDWQASDLNRSWSYAFMSLVRQSPAHRDAAQVEASLRGWTGFMEILEGQLLRTGAYVAGETFSLADIAIGLSVNRWYETPFEHPSLPAVRAYYERLGAR”, for which the “soluble on expression in E. coli” value is “not soluble”.
The entry for “MLFCTNIAIAQGTIEDYRRAYSAGEKFSANKVSYSNVNPEWIGKTHYFWYVRNTPDGRIYVLVDADTQNRKDLFDHKLVAAALSEASGRKIEATSLYLDRLSVNNGLDTLHFVFNNHRWMYVIDKNQLTDEGALPTPRKQRHWMETDDEKTAAPVTSPDKKYTAFIKNHNIYVKETATGKEKQLSLDGTLGNYYSAYIRWSPDSKKSLPARFVR” is “not soluble”.
On to “MLFFLIFLGLMATASAKAGRCNEGDQDAHFDSNKFWKCEGGRWIVVTCQINYFYDATTGFCYLSRFPTTRPYPPPFPTRPRPTQGHRCYPGTRIPYPHDHTMFLECSTDGTEYIKRYCQPDAVFVQRENMCVAIQTTYRPTRTWPTTTTTPYYGACKESAGHDGYKPDVYNCKNFYQCASGLWTQRSCGEGTIWDQHKLTCDHNRGQCRPTSPTVQPTYQPTWRPTAYPPNEVKK”, for which the “soluble on expression in E. coli” value is on record as “soluble”.
For the sequence “MLGDRCAPIKASGVLIGDSVLVTDVEQARSLYSCGYYGQPLDVEKPRGADFEGPLRLSLIESLYLAEKGVLEVAKPDGSSVGVEDLRTAVRGNPRFSMLYNIYRDLRERGFVVRSGLKFGSDFAVYRLGPGIDHAPFIVHAYSPEDNIDPVEIVRAGRLSHSVRKKFVFAVTRGGDVSYLMIDWFRP”, the “soluble on expression in E. coli” value is “soluble”.
On to “MLGMSYLRYVRIIGTVHVSPQSVKEVRNIILRENPDAVAVELDYGRLLSLLNGSSLTFSQAIKLGKIGILAYLLQGVEMALGKQVGVLPGSEMIEAFEVARSLGIPIYMIDMPIQVTLKRLFSVPIEEKIRGIIEIFLSIVYPKVELNLEDYISLELEFKRKYPTVYKILVEERNEFMARNLMRIVDILLERKKKIKIIAVVGLGHKRGIERILSHYSPKSIYLEHHHHHH”, for which the “soluble on expression in E. coli” value is “not soluble”.
With “MLGPVLRLVVKAGKERKLRNFYPNLYRDEIAAPPEGVGVAEAVDAEGHFLAVGYYDPRSRVPFRAFRFDPGPLNRAFFQGRFARALRRRQGLGESHRLVHGEADGLPGLVVDRFGEVLVLQVRSRGMEALREVWLPALLEVVAPKGVYERSDVEARRQEGLPERVGVVYGEVPEVLEVEEDGLRFPIPLALAQKTGYYLDQRENRRLFEAMVRPGERVLDVYSYVGGFALRAARKGAYALAVDKDLEALGVLDQAALRLGLRVDIRHGEALPTLRGLEGPFHHVLLDPPTLVKRPEELPAMKRHLVDLVREALRLLAEEGFLWLSSCSYHLRLEDLLEVARRAAADLGRRLRVHRVTYQPEDHPWSLHIPESLYLKTLVLQDDPL” the entry was “soluble”; with “MLGTISMRFFATKVVAPRASVAASTPQVPLGMNINPYAMFIKENFKANTSDMKRTDLMKELSGKWKALSISEKDKYTELSKNYNAQKLDDFMKLSTEEQKKLVDSAKEKKAERASRRHAKERREKRKQSGRPSVPPSAYALFIKEKLSGAGMESKEKMKEAVAQWKAFTDSQKKKYTDEAKKLKDEYHVVLQKWEAEQKENADQ”, “not soluble”.
With “MLHILCQGTPFEIGYEHGSAAKAVIARSIDFAVDLIRGKTKKTDEELKQVLSQLGRVIEERWPKYYEEIRGIAKGAERDVSEIVMLNTRTEFAYGLKAARDGATTAYCQLPNGALQGQNWDFFSATKENLIRLTIRQAGLPTIKFITEAGIIGKVGFNSAGVAVNYNALHLQGLRPTGVPSHIALRIALESTSPSQAYDRIVEQGGMAASAFIMVGNGHEAFGLEFSPTSIRKQVLDANGRMVHTNHCLLQHGKNEKELDPLPDSWNRHQRMEFLLDGFDGTKQAFAQLWADEDNYPFSICRAYEEGKSRGATLFNIIYDHARREATVRLGRPTNPDEMFVMRFDEEDERSALNARL”, the “soluble on expression in E. coli” value is recorded as “soluble”.
The entry for “MLHKRFRRYSMLKRYGQIIEVLQKYGFGYIVDQIGLGSFGDFTSRLKKQEKRDEHNLSGPVRTRRILEELGPTYIKLGQLLSMRRDLVPLEYAAEFSKLQDDAPSFGFEEVELIIREELGLPVEDLFESFEKKPLACASIGQVHRAKLKNGDDVVVKVQRPGIKEVIESDLDIMYSLSRLLTEHIPEARLYRPVELVDELSRSILAEIDYSQEGWNTDRFAENFKDSEQIHIPKVYWDYTGLEHHHHHH” is “not soluble”; for “MLIKLGTELTKEEYVTRYMRNFQKLLLLGDRPKVLTNREEQLLQYEKELCVLFYEQFIKKHHRAPDEATLDDQVKANFIERSKIFARSPLVMDEGNFTQAHIGQLKRLRELRMEDYLPDNYTHILQREEELARNYFRKHDDYPFGYECLCISRSREVVNQGLEKLLEGFYDSYQVYYRRYRKNG” it is “not soluble”; for “MLIPWQDLSPETLENLIESFVLREGTDYGEHERTLEQKVADVKRQLQCGEAVLVWSELHETVNIMPRSQFRE” it is “soluble”.
The entry for “MLIVLSLGGSILAKNLDPDRFLKYANALRDISKKHTLLVVTGGGEAARDYIGAARAMGADEVTCDYIGIEITRLNARLLISALGHDAYPEIPSNYPEASKAMTSGKVVVMGGVTPGQTTDAVASILAEYLRADLLTIATSIDGVYSSDPNCDPCAVKYEKISPEKLINIVMAIEMKAGSKSPVDPVAAKIIERCKLDALVMDARNPDLLVEVICGEAAKKSPVSCGTWITAKKMAGDPLEHHHHHH” is “soluble”.
Turning to “MLIVRPSGRAAEDVETCLNAGWRAEVLSPVEIEADAAGLELLSEQYARADAVFWVSPTAVETAVPYLNLSDGIKAQIAVGQGSRRALERCLVRTVIAPDDGNDSEAVLRLPVWNSLPEGARVLFVRGHGGRDFLMNALQEKGFRTEVAEVYFRRHKPLNFQNFQTENIAAAYITSTELVRLLFGQLPPQFSRFFKSLLYFTHHPRIAEALKREGVCSVETVPTLEAALSHSSISVSDGMVFPGTSN”, the “soluble on expression in E. coli” value was “not soluble”.
With “MLKEFKMIEAVAPDMLDVLQERFQILRNIYWMQPIGRRSLSETMGITERVLRTETDVLKQLNLIEPSKSGMTLTERGLEVYQGLELVMNQLLGMHQIEKEMTQYFGIQRCIVVAGDSDIQKKVLSDFGDVLTNTLNLLLPNGENTIAVMGGTTMAMVAENMGSLETEKRHNLFVPARGGIGEAVSVQANSISAVMANKTGGNYRALYVPEQLSRETYNSLLQEPSIQEVLTLISHANCVVHSIGRALHMAARRKMSDDEMVMLKQKNAVAESFGYFFDEEGKVVYKIPRIGLQLKNLQEIPYVVAIAGGKTKAKAIRAYMKNAPKQTWLITDEAAANEILKGVTL” the entry was “soluble”; with “MLKKYLISLDKDIQRRELFFSQKNTEDFQVFSAINTMQKDWDELAAIFNIEQFKAHYFRNVTKGEIGCTLSHLSVYQKIVEDNDIAEDSYALVCEDDALFHSDFQQNLTALLSEKLEAEIILLGQSKINDFNDFDLEINYPTTFSFLCKKTGDVNYAFPYKSYFAGTVGYLIKKSAARRFIQQISQNKPFWLADDFLLFEQNFNIRNKVVRPLIVIENPVLISNLESVRGSLSNNLLKKLMKYPLKKIFAIKKNLAN”, “soluble”; with “MLKLARPFIPPLSRNNAISSGIVLTSRRFQSSFTFLSNQSLLSKNQMKSKRKKGSKKAAYHRQPPEHEHTAPLIKQNKTITKKEHSDVRGSHLKKKRSDFSWLPRVPSTSHLKQSDMTTNVLYSGYRPLFINPNDPKLKEDTGSTLYEFAMKLEDLNEPLSPWISSATGLEFFSEWENIPSELLKNLKPFHPPKEKSMNTNELIHVSAKRNTLVDNKTSETLQRKMDEFSKRRGKGRKKSVVTLLQMKKKLEG”, “not soluble”.
Consider “MLKLLIVDDAMFMRTMIKNIVKDSDFEVVAEAENGLEAVKKYDEVKPDIVTLDITMPEMDGLEALAQIMAKDPSAKVIMCSAMGQQGMVVDAIKKGAKDFIVKPFQADRVLEALEKAAK”, for which the “soluble on expression in E. coli” value is “not soluble”.
